# In patent US20160024208A1 (Regeneron, published 2016):
# T1: Native Nav1.7 (3-1) peptide, human (human)
# T1 construct: Synthetic peptide (Celtek), unbiotinylated; also called Human Nav1.7 3-1 native; Nav1.7 3-1 native peptide
# T1 peptide: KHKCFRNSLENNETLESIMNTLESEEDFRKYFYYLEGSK
# T2: N-Term Biotin Nav1.7 (3-1) peptide, mulatta (mulatta (monkey), not fully specified; N-terminal biotin attached via a G4S linker)
# T2 construct: Synthetic peptide; also called Mulatta Nav1.7 3-1 N-term biotin; monkey
# T2 peptide: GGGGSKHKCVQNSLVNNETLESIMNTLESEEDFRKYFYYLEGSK
# T3: N-Term Biotin Nav1.7 (3-1) peptide, mouse (mouse, not fully specified; N-terminal biotin attached via a G4S linker)
# T3 construct: Synthetic peptide; also called Mouse Nav1.7 3-1 N-term biotin
# T3 peptide: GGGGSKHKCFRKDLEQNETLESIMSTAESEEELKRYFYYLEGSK
# T4: Native Nav1.7 (3-1) peptide, rat (rat)
# T4 construct: Synthetic peptide; also called Rat Nav1.7 3-1 native
# T4 peptide: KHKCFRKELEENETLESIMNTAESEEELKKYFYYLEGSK
# T5: C-term Biotin Nav1.7 (3-1) peptide, human (human, not fully specified; C-terminal biotin attached via a G4S linker)
# T5 construct: Synthetic peptide; also called Human Nav1.7 3-1 C-term biotin
# T5 peptide: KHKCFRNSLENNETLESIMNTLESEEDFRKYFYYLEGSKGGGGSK
# T6: N-Term Biotin-Nav1.7 (3-1) peptide, human (human, not fully specified; N-terminal biotin attached via a G4S linker)
# T6 construct: ELISA peptide
# T6 peptide: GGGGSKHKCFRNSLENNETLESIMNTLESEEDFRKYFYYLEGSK
# Legend:
# [1] = molecular target: T7, full-length human Nav1.7 fused at its N-terminus to GFP, expressed in HEK293 cells (human, UniProt Q15858 1-1988); assay: cell-based or functional assay
# [2] = molecular target: T1, Native Nav1.7 (3-1) peptide, human; assay: SPR, captured antibody, peptide analyte
# Procedure: (§1) The binding affinities of anti-Naᵥ 1.7 antibodies to Naᵥ 1.7 loop peptides were determined by Biacore. For monovalent kinetic experiments, antibodies were captured through the Fc region via a goat anti-Fc-coupled biosensor surface, and the peptides (as analyte) were injected over this captured antibody surface. For bivalent (avidity-driven) kinetic experiments, biotinylated peptides corresponding to the Naᵥ 1.7 3-1, 3-3, or paddle loop sequences were captured on a NeutrAvidin sensor surface, and anti-Naᵥ 1.7 antibodies (as analyte) were injected over this surface. Following the capture step, each analyte was individually injected at several concentrations over its respective capture surface, and changes in bound surface units (RU) were monitored. The dissociation rate is independent of the concentration of analyte used in the experiment, and the dissociation rate constant (kd) was determined from the change in antibody-bound analyte RU over time. The Biacore kinetic data were obtained using a double referencing procedure. The double referencing was conducted by first subtracting any interaction of the analyte over the reference surface (i.e., the anti-Fc coupled surface alone or the NeutrAvidin surface alone), thereby correcting for nonspecific binding to capture surface and for refractive index changes. Control buffer injections (no analyte) over the antibody- or peptide-captured surfaces were also performed to allow subtraction of RU signal changes resulting from the natural dissociation of captured binding partner from the sensor surface. The kinetic parameters were obtained by globally fitting the data for all concentrations tested for a given peptide or antibody to a 1:1 binding model using Biacore T100 Evaluation Software version 2.0.2. The KD was calculated as the dissociation rate constant divided by the association rate constant (KD=kd/kₐ). The dissociative half-life (t_{1/2}) was calculated from the dissociation rate constant (t_{1/2}=In2/kd).
# [3] = molecular target: T2, N-Term Biotin Nav1.7 (3-1) peptide, …; assay: SPR, captured antibody, peptide analyte
# Procedure: as §1
# [4] = molecular target: T3, N-Term Biotin Nav1.7 (3-1) peptide, …; assay: SPR, captured antibody, peptide analyte
# Procedure: as §1
# [5] = molecular target: T4, Native Nav1.7 (3-1) peptide, rat; assay: SPR, captured antibody, peptide analyte
# Procedure: as §1
# [6] = molecular target: T5, C-term Biotin Nav1.7 (3-1) peptide, …; assay: SPR, captured biotin-peptide, antibody analyte
# Procedure: as §1
# [7] = molecular target: T2, N-Term Biotin Nav1.7 (3-1) peptide, …; assay: ELISA on coated peptide, antibody 1 ug/ml, OD450 grade
# Procedure: (§2) Anti-Naᵥ 1.7 antibodies were tested for their ability to bind to the Naᵥ 1.7 peptides. The various peptides were coated overnight onto 96-well Nunc Immunosorp plates at a concentration of 4 μg/mL in PBS, followed by blocking for 1 hour in a suitable blocking agent. For biotinylated peptides, avidin was first coated on Nunc Immunosorp plates at 2 μg/mL in PBS overnight, followed by blocking as described, and the plate was then coated with biotinylated peptides at a concentration of 0.4 μg/mL and incubated for 1 hour at room temperature. Purified anti-Naᵥ 1.7 antibodies were diluted to a final concentration of 0.1 μg/mL and 1.0 μg/mL and added to the wells of the coated microtiter plates followed by incubation for 1 hour at room temperature. Bound antibodies were detected with horseradish peroxidase (HRP) conjugated anti-mouse or anti-human IgG (Jackson Immuno Research Lab, West Grove, Pa.) depending on the antibody species and developed by colorimetric response using tetramethylbenzidine (TMB) substrate (BD Biosciences). Absorbance was read at OD₄₅₀ on a plate reader for 0.1 second.
# (§3) Values in Table 11 represent absolute binding ranges (at OD450) to plate-coated peptides for antibodies added at 1 μg/ml as follows: OD450<0.2: −; 0.2<OD450<1: +; 1<OD450<2: ++; 2<OD450<4: +++; NT: Not Tested.
# [8] = molecular target: T3, N-Term Biotin Nav1.7 (3-1) peptide, …; assay: as above
# Procedure: as §2, §3
# [9] = molecular target: T4, Native Nav1.7 (3-1) peptide, rat; assay: as above
# Procedure: as §2, §3
# [10] = molecular target: T6, N-Term Biotin-Nav1.7 (3-1) peptide, …; assay: as above
# Procedure: as §2, §3
# [11] = molecular target: T7, full-length human Nav1.7 fused at its …; assay: flow cytometry; % stained hNav1.7-GFP-HEK293 minus parental HEK293
# Procedure: The binding of anti-Naᵥ 1.7 human antibodies to full-length Naᵥ 1.7 expressed in HEK293 cells was determined by flow cytometry (FACS). HEK293 cells were stably-transfected with full-length human Nav1.7 fused at its N-terminus to the green fluorescent protein (GFP) to generate cell line hNaᵥ 1.7-GFP-HEK293. Antibody binding to the transfected cells overexpressing Naᵥ 1.7 was compared to binding to the parental HEK293 cell line. To perform the binding experiments, adherent cells were collected using 1 mM EDTA in PBS, washed and re-suspended in cold PBS containing 5% FBS. For each binding experiment, the anti-Naᵥ 1.7 antibody (at concentrations ranging from 1 nM to 13 nM), was added to 250,000 cells in 500 μL of PBS with 5% FBS. After incubation for 20 minutes on ice, the secondary antibody, recognizing either human-Fc and conjugated to cyanine 5 (Cy5) or recognizing mouse-Fc and conjugated to allophyocyanin (APC), was then added to the cell mixture at a final secondary antibody concentration of 1.7 nM. After incubating for 20 minutes on ice, the cells were resuspended in PBS+5% FBS and then sorted and analyzed on a flow cytometer to determine relative binding by the candidate antibodies. For FACS analysis, gating was applied to examine only healthy live cells in the antibody binding experiments, and percentage stained was recorded. Staining of secondary antibodies alone to Naᵥ 1.7-GFP-HEK293 cells gave low background signals (1-2%). Specific binding was measured as the percent binding to Naᵥ 1.7-GFP-HEK293 cells minus percent binding to parental HEK293 cells.
Binder,"Current blocking (Average % inhibition), IonWorks Quattro, 223 nM antibody [1] [%]",Kd [2] [nM],t1/2 [2] [min],Kd [3] [nM],t1/2 [3] [min],Kd [4] [nM],t1/2 [4] [min],Kd [5] [nM],t1/2 [5] [min],Kd [6] [nM],t1/2 [6] [min],OD450 [7] [od],OD450 [8] [od],OD450 [9] [od],OD450 [10] [od],% Binding Nav1.7 [11] [%]
"H1M834N (antibody, V domains shown) VH: QVQLVESGGGVVQPGRSQRLSCAASGFTFSHYGMHWVRQAPGKGLEWVAVISYDGNNKHYADSVKGRFTTSRDNSKNTLFLQMNSLRAEDTAVYYCARGYSGYVLDYWGQGTLVTVSS VL: not shown",-14,5.53,12,2.39,20.3,19.2,2.8,10.2,2.3,0.751,82.5,2 to 4,1 to 2,2 to 4,2 to 4,4.8
"H1M875N (antibody, V domains shown, also called H1H875N) VH: QVQLVESGGGVVQPGRSQRLSCAASGFTFSHYGMHWVRQAPGKGLEWVAVISYDGNNKHYADSVKGRFTTSRDNSKNTLFLQMNSLRAEDTAVYYCARGYSGYVLDYWGQGTLVTVSS VL: not shown",25,5.85,12.5,1.89,26.5,12,3.2,6.7,3,0.78,87.2,2 to 4,2 to 4,2 to 4,2 to 4,5.9
"H1M839N (antibody, V domains shown) VH: QVQLVESGGGVVQPGRSLRLSCAASGFTFSNYGMHWVRQAPGKGLEWVAVTSYDGSNKHYADSVKGRFSTSRDNPKNTLYLQMDSLRGEDTAVYYCARGYSGFVLDNWGQGTLVTVSS VL: DIVMTQTPLSSPVTLGQPASISCRSSQSLVKSDGNTYLSWLQQRPGQPPRLLIYKISNRFSGVPDRFSGSGAGTDFTLKISRVEAEDVGIYYCMQTTQFPFTFGPGTKVDIK",13,3.32,18.2,1.47,28.7,15.1,3.1,7.11,3.2,0.692,137,2 to 4,2 to 4,2 to 4,2 to 4,5.1
"H4H397B (antibody, V domains shown) VH: QVQLVQSGGGVVQPGRSLRLSCAASGFTFSSYGMHWVRQAPGKGLEWVALISYAGINEYYADSVKGRFTISRDDSKNTLYLQMNSLRVEDTAVYYCAKSRGYSYGLGYWGQGTLVTVSS VL: not shown",-50,2.37,34,0.097,289,43.5,3.92,14.2,3.3,0.299,206,2 to 4,2 to 4,2 to 4,2 to 4,–
"H4H367B (antibody, V domains shown) VH: QVQLVQSGGGVVQPGRSLRLSCAASGFSFSSFGMHWVRQAPGKGLEWVAVISYGGINKHYSDSVKGRFTISRDDSKNTLYLQMNSLRAEDTAVYYCAKREGYRYAYDYWGQGTLVTVSS VL: DIQMTQSPSSLSASVGDRVTITCRASQGISNYLAWFQQKPGKAPKSLIYGASSLQSGVPSKFSGSGSGTDFTLTISSLQPEDFATYYCQQYNSYPLTFGGGTKVEIKR",-35,4.67,10.5,0.63,23.7,107,0.59,88,0.42,0.341,94,2 to 4,2 to 4,2 to 4,2 to 4,15.8
"H1H1008B (antibody, V domains shown, Fully human antibody; also called H4H1008B) VH: EVQLVQSGPGLVKSSETLSLKCTVSGGSISSSGYYWGWIRQPPGKGLEWIGSIHRSGSTFYNPSLKSRVTISVDTSKSQFSLRLTSVTAADTSVYFCGRHGRDYYYGMDVWGQGTTVTVSS VL: DIQMTQSPSSVSASVGDRVTITCRSSQDINNWLVWYQQKPGKAPKVLIYGASRLQSGVPSRFSGSGSGTDFTLTISSLQPEDFATYYCQQANSFPLTFGGGTKLEIKR",38,4.31,4,1.11,17.5,14.8,1.3,4.67,3.1,0.123,84.2,2 to 4,2 to 4,2 to 4,2 to 4,12.5
